In article PMC9881158, “The DEAD-box protein Dbp6 is an ATPase and RNA annealase interacting with the peptidyl transferase center (PTC) of the ribosome” (Nucleic Acids Research, 2023):
Values belong to the binder of their own block, whether it stands above or below them.

How the values were obtained:
[1] = target: the molecule itself; experiment: SEC; Superdex 200 gel filtration after HisTrap; GF-ATPase buffer (20 mM Tris–HCl pH 8.0, 100 mM KCl, 10% glycerol, 1 mM DTT, 0.5 mM PMSF); column calibrated with molecular weight standards
Dbp6 [2] = target: T1, Dbp6 (Saccharomyces cerevisiae, UniProt P53734 1-629); experiment: EMSA; no nucleotide; EMSA: 1 nM 32P-RNA, RB 1x (composition not in the material), RNasin, 15 min at 30 C, native PAGE in TBE; bridging: 0.8 uM Dbp6, RB 1x, 15 min at 30 C; settings: protein: recombinant; tags: N-terminal His6; label: 32P
T1 sequence: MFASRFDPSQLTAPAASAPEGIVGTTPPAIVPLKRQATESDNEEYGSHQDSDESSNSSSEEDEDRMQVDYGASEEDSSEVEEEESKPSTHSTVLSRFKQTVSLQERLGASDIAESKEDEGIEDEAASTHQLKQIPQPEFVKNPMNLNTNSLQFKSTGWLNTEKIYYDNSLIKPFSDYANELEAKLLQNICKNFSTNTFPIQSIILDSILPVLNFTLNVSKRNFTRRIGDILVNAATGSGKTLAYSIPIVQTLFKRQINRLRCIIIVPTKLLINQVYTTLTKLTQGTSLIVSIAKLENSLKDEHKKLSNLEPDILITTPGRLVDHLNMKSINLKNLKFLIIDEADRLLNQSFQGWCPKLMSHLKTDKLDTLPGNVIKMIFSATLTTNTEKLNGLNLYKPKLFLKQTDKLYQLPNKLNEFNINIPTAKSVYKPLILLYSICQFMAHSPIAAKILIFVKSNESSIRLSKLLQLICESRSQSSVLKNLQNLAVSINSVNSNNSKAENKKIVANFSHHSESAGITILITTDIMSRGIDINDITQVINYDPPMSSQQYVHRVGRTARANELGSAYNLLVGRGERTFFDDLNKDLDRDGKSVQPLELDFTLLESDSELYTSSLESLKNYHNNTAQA

Dbp6 [3] = target: T1, Dbp6; experiment: EMSA; Dbp6 up to 1.2 uM; EMSA: 1 nM 32P-RNA, RB 1x (composition not in the material), RNasin, 15 min at 30 C, native PAGE in TBE; bridging: 0.8 uM Dbp6, RB 1x, 15 min at 30 C; settings: protein: recombinant; tags: N-terminal His6; label: 32P
[4] = target: T2, Dbp6 M-II mutant (motif II, DEAD to DAAD), His6-tagged recombinant, P53734; experiment: UV cross-linking; settings: chain shown with the change, no RNA included, parent: est. 0.51, read off a plot
T2 chain: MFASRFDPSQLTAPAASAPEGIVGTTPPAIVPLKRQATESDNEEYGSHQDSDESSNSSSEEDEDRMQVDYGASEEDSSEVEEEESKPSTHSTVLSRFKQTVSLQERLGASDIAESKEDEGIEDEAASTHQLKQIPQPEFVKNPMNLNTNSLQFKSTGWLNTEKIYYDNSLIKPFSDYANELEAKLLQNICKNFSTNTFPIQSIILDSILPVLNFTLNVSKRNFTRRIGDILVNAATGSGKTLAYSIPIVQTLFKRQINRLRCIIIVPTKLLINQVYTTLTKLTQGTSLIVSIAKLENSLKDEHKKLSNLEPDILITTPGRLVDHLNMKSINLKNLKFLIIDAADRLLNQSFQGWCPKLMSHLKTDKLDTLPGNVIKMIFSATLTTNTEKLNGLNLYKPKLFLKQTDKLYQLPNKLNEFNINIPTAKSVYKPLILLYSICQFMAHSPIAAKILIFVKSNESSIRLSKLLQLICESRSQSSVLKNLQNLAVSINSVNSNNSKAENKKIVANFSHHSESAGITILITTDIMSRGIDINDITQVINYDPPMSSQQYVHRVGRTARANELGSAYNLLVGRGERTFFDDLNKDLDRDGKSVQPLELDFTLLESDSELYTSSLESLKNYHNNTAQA

[5] = target: T3, Dbp6 M-I mutant (motif I, GTGKT), His6-tagged recombinant, P53734; experiment: UV cross-linking; settings: chain shown with the change, no RNA included, parent: est. 0.51, read off a plot
T3 chain: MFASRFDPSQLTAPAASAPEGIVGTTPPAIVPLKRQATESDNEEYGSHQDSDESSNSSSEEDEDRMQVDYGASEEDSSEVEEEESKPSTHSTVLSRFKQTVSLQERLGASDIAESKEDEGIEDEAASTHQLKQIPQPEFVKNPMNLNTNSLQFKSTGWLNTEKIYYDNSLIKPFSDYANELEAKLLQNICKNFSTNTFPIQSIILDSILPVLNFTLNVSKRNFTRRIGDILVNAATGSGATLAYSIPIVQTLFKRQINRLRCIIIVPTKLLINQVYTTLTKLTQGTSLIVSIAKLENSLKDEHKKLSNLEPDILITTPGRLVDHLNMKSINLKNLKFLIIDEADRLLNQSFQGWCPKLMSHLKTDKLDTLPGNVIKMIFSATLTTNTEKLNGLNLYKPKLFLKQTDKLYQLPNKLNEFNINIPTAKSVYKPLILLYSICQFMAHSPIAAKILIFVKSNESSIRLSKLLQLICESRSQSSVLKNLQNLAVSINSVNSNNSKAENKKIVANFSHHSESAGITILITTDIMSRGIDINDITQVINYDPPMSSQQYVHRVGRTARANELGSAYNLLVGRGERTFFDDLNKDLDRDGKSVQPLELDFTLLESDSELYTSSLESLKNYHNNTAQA

[6] = target: the molecule itself; experiment: cross-linking; purified recombinant Dbp6 (1.5 or 0.8 μM) in RB 1× buffer, 15 min at 20°C, UV 312 nm for 6 min on ice; SDS-PAGE, western blot or silver staining; with or without ATP (1 or 5 μM with labelled ATP; 5 mM) and RNA oligonucleotide
[7] = target: the molecule itself; experiment: co-IP; immunoprecipitation of Dbp6-ZZ with IgG-sepharose from extracts of a yeast strain expressing HA-Dbp6 and ZZ-tagged Dbp6, in the presence of RNase; western blot

B1: Dbp6 ΔN mutant (lacking the N-terminal D/E-rich sequence, residues 24–128), His6-tagged recombinant (enzyme, S. cerevisiae, UniProt P53734 1-629, looked up)
chain: MFASRFDPSQLTAPAASAPEGIVHQLKQIPQPEFVKNPMNLNTNSLQFKSTGWLNTEKIYYDNSLIKPFSDYANELEAKLLQNICKNFSTNTFPIQSIILDSILPVLNFTLNVSKRNFTRRIGDILVNAATGSGKTLAYSIPIVQTLFKRQINRLRCIIIVPTKLLINQVYTTLTKLTQGTSLIVSIAKLENSLKDEHKKLSNLEPDILITTPGRLVDHLNMKSINLKNLKFLIIDEADRLLNQSFQGWCPKLMSHLKTDKLDTLPGNVIKMIFSATLTTNTEKLNGLNLYKPKLFLKQTDKLYQLPNKLNEFNINIPTAKSVYKPLILLYSICQFMAHSPIAAKILIFVKSNESSIRLSKLLQLICESRSQSSVLKNLQNLAVSINSVNSNNSKAENKKIVANFSHHSESAGITILITTDIMSRGIDINDITQVINYDPPMSSQQYVHRVGRTARANELGSAYNLLVGRGERTFFDDLNKDLDRDGKSVQPLELDFTLLESDSELYTSSLESLKNYHNNTAQA
notes: made from pET-Dbp6; also called pET-ΔN; source: E. coli Rosetta λDE3, purified (HisTrap FF, Superdex 200)
binding result [1]: binds

Binder: CAGAACCGCUACACUGAAAUGAUCAAUUCCGGUCUCCC (ssRNA) [ss38-mer]
binding result (Dbp6 [2]): binds

Binder: GGGAGACCGGAAUUCAUCAUU (ssRNA) [ss21-mer]
binding result (Dbp6 [3]): no binding

other: quantity of oligomers with ATP, relative to without ATP (set at 1) [4]: 0.96
B2: recombinant His6-Dbp6, P53734 M-II: E to A in motif II (DEAD to DAAD) (protein)
chain: MFASRFDPSQLTAPAASAPEGIVGTTPPAIVPLKRQATESDNEEYGSHQDSDESSNSSSEEDEDRMQVDYGASEEDSSEVEEEESKPSTHSTVLSRFKQTVSLQERLGASDIAESKEDEGIEDEAASTHQLKQIPQPEFVKNPMNLNTNSLQFKSTGWLNTEKIYYDNSLIKPFSDYANELEAKLLQNICKNFSTNTFPIQSIILDSILPVLNFTLNVSKRNFTRRIGDILVNAATGSGKTLAYSIPIVQTLFKRQINRLRCIIIVPTKLLINQVYTTLTKLTQGTSLIVSIAKLENSLKDEHKKLSNLEPDILITTPGRLVDHLNMKSINLKNLKFLIIDAADRLLNQSFQGWCPKLMSHLKTDKLDTLPGNVIKMIFSATLTTNTEKLNGLNLYKPKLFLKQTDKLYQLPNKLNEFNINIPTAKSVYKPLILLYSICQFMAHSPIAAKILIFVKSNESSIRLSKLLQLICESRSQSSVLKNLQNLAVSINSVNSNNSKAENKKIVANFSHHSESAGITILITTDIMSRGIDINDITQVINYDPPMSSQQYVHRVGRTARANELGSAYNLLVGRGERTFFDDLNKDLDRDGKSVQPLELDFTLLESDSELYTSSLESLKNYHNNTAQA

other: quantity of oligomers with ATP, relative to without ATP (set at 1) [5]: 0.97
B3: recombinant His6-Dbp6, P53734 M-I: K to A in motif I (GTGKT) (protein)
chain: MFASRFDPSQLTAPAASAPEGIVGTTPPAIVPLKRQATESDNEEYGSHQDSDESSNSSSEEDEDRMQVDYGASEEDSSEVEEEESKPSTHSTVLSRFKQTVSLQERLGASDIAESKEDEGIEDEAASTHQLKQIPQPEFVKNPMNLNTNSLQFKSTGWLNTEKIYYDNSLIKPFSDYANELEAKLLQNICKNFSTNTFPIQSIILDSILPVLNFTLNVSKRNFTRRIGDILVNAATGSGATLAYSIPIVQTLFKRQINRLRCIIIVPTKLLINQVYTTLTKLTQGTSLIVSIAKLENSLKDEHKKLSNLEPDILITTPGRLVDHLNMKSINLKNLKFLIIDEADRLLNQSFQGWCPKLMSHLKTDKLDTLPGNVIKMIFSATLTTNTEKLNGLNLYKPKLFLKQTDKLYQLPNKLNEFNINIPTAKSVYKPLILLYSICQFMAHSPIAAKILIFVKSNESSIRLSKLLQLICESRSQSSVLKNLQNLAVSINSVNSNNSKAENKKIVANFSHHSESAGITILITTDIMSRGIDINDITQVINYDPPMSSQQYVHRVGRTARANELGSAYNLLVGRGERTFFDDLNKDLDRDGKSVQPLELDFTLLESDSELYTSSLESLKNYHNNTAQA

B4: recombinant His6-Dbp6 (enzyme, S. cerevisiae, UniProt P53734 1-629, looked up)
chain: MFASRFDPSQLTAPAASAPEGIVGTTPPAIVPLKRQATESDNEEYGSHQDSDESSNSSSEEDEDRMQVDYGASEEDSSEVEEEESKPSTHSTVLSRFKQTVSLQERLGASDIAESKEDEGIEDEAASTHQLKQIPQPEFVKNPMNLNTNSLQFKSTGWLNTEKIYYDNSLIKPFSDYANELEAKLLQNICKNFSTNTFPIQSIILDSILPVLNFTLNVSKRNFTRRIGDILVNAATGSGKTLAYSIPIVQTLFKRQINRLRCIIIVPTKLLINQVYTTLTKLTQGTSLIVSIAKLENSLKDEHKKLSNLEPDILITTPGRLVDHLNMKSINLKNLKFLIIDEADRLLNQSFQGWCPKLMSHLKTDKLDTLPGNVIKMIFSATLTTNTEKLNGLNLYKPKLFLKQTDKLYQLPNKLNEFNINIPTAKSVYKPLILLYSICQFMAHSPIAAKILIFVKSNESSIRLSKLLQLICESRSQSSVLKNLQNLAVSINSVNSNNSKAENKKIVANFSHHSESAGITILITTDIMSRGIDINDITQVINYDPPMSSQQYVHRVGRTARANELGSAYNLLVGRGERTFFDDLNKDLDRDGKSVQPLELDFTLLESDSELYTSSLESLKNYHNNTAQA
notes: DEAD-box protein Dbp6 of yeast (S. cerevisiae), DBP6 ORF cloned downstream of a His tag in modified pET-15b; His6-Dbp6 ca. 73 kDa; SEC fractions also hold some truncated fragments of Dbp6; fraction F17 was used for the in vitro assays; also called WT Dbp6; wild-type Dbp6; source: E. coli Rosetta λDE3, purified (HisTrap FF, Superdex 200); not shown: His6, N-terminal, kept
stoichiometry N [1]: 2
fold reduction of oligomerization with 5 mM ATP against no ATP [6]: ~2 fold

B5: Dbp6 expressed in yeast as HA-Dbp6 and as Dbp6-ZZ (enzyme, S. cerevisiae, UniProt P53734 1-629, looked up)
chain: MFASRFDPSQLTAPAASAPEGIVGTTPPAIVPLKRQATESDNEEYGSHQDSDESSNSSSEEDEDRMQVDYGASEEDSSEVEEEESKPSTHSTVLSRFKQTVSLQERLGASDIAESKEDEGIEDEAASTHQLKQIPQPEFVKNPMNLNTNSLQFKSTGWLNTEKIYYDNSLIKPFSDYANELEAKLLQNICKNFSTNTFPIQSIILDSILPVLNFTLNVSKRNFTRRIGDILVNAATGSGKTLAYSIPIVQTLFKRQINRLRCIIIVPTKLLINQVYTTLTKLTQGTSLIVSIAKLENSLKDEHKKLSNLEPDILITTPGRLVDHLNMKSINLKNLKFLIIDEADRLLNQSFQGWCPKLMSHLKTDKLDTLPGNVIKMIFSATLTTNTEKLNGLNLYKPKLFLKQTDKLYQLPNKLNEFNINIPTAKSVYKPLILLYSICQFMAHSPIAAKILIFVKSNESSIRLSKLLQLICESRSQSSVLKNLQNLAVSINSVNSNNSKAENKKIVANFSHHSESAGITILITTDIMSRGIDINDITQVINYDPPMSSQQYVHRVGRTARANELGSAYNLLVGRGERTFFDDLNKDLDRDGKSVQPLELDFTLLESDSELYTSSLESLKNYHNNTAQA
notes: DEAD-box protein Dbp6 of yeast (S. cerevisiae); HA-tagged ORF under the GAL1-10 promoter and wild-type DBP6 cassette in pHA113 between a GAR1 promoter and a ZZ tag; also called ZZ-tagged Dbp6; GAL::HA-DBP6; source: yeast strain expressing HA-Dbp6 as well as ZZ-tagged Dbp6, in extract
fold enrichment over background [7]: ~2 fold
